{"source": "paper PMC4397020", "biological_target": "fibronectin (from human plasma) (human) (UniProt P02751)", "sequence (P02751 other isoform, or with tags, fused parts or gaps, chain 1 of 2)": "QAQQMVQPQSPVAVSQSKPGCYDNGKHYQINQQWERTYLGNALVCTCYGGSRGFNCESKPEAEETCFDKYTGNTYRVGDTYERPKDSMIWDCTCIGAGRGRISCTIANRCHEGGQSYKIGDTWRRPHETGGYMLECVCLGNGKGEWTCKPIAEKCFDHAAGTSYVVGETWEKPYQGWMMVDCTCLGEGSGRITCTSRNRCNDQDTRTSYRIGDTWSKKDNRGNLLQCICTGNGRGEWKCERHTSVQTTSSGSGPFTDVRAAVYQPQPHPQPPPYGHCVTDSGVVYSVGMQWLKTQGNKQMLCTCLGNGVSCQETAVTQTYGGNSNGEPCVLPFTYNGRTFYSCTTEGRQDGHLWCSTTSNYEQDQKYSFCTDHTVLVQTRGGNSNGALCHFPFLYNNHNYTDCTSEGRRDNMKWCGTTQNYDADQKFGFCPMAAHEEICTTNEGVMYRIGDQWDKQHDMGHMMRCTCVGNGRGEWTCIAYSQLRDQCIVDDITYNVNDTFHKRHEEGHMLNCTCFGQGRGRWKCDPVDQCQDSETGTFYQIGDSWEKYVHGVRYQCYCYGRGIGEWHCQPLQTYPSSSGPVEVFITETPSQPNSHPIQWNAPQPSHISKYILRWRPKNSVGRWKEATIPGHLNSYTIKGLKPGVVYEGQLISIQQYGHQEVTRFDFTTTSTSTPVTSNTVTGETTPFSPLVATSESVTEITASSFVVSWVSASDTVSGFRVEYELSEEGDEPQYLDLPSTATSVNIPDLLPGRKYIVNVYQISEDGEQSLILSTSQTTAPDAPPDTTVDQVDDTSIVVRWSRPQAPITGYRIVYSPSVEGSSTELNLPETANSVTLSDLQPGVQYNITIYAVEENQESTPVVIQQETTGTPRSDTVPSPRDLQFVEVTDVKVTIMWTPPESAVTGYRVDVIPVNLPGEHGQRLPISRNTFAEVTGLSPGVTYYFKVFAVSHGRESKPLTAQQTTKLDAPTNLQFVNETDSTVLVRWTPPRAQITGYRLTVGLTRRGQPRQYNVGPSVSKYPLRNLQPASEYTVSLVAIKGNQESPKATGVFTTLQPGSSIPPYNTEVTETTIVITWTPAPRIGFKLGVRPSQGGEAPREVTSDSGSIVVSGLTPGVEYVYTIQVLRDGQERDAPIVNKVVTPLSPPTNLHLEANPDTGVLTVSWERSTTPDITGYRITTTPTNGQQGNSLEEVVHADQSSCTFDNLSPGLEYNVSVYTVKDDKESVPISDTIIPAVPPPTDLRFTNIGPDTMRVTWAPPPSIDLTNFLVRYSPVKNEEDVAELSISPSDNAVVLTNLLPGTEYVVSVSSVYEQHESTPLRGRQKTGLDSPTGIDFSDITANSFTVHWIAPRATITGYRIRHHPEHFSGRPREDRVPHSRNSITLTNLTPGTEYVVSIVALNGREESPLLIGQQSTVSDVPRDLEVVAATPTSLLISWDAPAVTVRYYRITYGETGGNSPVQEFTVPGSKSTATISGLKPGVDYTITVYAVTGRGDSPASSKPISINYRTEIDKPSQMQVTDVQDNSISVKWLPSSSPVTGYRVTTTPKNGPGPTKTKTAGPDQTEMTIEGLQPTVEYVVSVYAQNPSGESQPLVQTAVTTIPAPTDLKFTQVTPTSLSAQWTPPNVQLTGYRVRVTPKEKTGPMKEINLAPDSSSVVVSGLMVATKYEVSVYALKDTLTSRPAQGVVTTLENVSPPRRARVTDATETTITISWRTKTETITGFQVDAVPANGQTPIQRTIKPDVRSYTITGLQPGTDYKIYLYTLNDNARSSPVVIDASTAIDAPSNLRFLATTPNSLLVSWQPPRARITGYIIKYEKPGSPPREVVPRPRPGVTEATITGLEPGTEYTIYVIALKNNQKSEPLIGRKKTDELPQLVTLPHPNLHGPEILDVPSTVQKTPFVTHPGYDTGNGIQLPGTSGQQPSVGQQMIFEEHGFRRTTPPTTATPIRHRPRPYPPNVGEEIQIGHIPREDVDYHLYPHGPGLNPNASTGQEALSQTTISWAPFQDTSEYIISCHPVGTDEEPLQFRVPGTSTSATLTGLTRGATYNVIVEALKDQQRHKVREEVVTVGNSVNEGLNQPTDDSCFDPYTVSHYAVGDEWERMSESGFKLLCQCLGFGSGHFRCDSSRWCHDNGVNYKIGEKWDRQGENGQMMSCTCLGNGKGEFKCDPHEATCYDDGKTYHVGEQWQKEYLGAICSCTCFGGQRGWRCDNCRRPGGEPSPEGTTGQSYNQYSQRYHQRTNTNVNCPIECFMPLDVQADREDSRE", "sequence (P02751 other isoform, or with tags, fused parts or gaps, chain 2 of 2)": "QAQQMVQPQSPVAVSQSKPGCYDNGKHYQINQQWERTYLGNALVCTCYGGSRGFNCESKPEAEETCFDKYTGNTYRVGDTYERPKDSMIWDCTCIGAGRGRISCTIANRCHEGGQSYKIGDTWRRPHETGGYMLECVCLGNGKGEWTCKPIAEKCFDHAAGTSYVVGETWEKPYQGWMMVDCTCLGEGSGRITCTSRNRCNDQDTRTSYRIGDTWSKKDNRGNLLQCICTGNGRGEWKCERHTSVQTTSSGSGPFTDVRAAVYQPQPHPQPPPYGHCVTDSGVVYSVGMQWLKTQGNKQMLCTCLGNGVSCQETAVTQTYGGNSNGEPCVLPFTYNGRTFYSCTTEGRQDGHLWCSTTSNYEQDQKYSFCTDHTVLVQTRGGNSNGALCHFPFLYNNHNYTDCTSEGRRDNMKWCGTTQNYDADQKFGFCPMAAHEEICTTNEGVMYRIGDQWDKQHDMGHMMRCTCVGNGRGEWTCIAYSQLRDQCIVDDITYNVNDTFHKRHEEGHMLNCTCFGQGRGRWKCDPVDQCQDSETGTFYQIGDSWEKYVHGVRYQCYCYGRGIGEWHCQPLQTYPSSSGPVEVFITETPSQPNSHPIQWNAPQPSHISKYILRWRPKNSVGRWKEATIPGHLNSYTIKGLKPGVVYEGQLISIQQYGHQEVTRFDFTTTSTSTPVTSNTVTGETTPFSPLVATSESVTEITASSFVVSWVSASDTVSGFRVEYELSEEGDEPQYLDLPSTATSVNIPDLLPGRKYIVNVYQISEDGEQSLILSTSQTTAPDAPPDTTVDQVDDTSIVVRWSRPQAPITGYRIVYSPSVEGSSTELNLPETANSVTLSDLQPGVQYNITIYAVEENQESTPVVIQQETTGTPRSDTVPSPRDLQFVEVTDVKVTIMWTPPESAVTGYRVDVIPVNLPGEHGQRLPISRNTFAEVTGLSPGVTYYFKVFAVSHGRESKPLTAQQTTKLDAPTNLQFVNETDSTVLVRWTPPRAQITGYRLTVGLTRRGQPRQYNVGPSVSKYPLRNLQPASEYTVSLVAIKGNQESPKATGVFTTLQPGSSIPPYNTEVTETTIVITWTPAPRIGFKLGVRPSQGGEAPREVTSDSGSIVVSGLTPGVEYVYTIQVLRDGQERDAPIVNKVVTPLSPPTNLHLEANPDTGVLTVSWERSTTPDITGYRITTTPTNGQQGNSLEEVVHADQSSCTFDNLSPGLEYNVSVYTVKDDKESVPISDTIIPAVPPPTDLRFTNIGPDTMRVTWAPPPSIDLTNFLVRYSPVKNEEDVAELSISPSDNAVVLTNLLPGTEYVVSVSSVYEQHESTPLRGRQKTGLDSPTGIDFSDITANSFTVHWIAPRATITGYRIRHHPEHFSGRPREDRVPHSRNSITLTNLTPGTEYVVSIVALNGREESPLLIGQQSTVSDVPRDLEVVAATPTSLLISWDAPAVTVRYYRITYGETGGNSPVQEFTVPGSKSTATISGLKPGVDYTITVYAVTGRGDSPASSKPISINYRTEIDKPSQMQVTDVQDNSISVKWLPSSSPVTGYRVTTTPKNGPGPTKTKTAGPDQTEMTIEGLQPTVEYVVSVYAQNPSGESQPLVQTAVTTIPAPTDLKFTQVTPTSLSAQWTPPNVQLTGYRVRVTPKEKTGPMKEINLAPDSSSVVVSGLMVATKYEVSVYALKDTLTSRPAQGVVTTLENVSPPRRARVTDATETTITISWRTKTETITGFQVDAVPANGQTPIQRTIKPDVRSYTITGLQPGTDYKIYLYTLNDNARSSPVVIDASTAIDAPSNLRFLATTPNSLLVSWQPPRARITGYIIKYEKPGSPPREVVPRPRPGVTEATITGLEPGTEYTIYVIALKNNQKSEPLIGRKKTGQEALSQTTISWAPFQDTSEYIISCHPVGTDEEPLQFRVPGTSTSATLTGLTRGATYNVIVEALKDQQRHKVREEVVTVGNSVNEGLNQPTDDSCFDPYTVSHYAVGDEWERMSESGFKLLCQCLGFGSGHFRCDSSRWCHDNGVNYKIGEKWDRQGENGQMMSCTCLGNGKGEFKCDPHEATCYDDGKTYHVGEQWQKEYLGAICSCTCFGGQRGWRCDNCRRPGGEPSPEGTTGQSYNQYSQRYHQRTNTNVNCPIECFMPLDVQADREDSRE", "test": "ELISA; as the adhesion assay on coated substrate, over a range of protein concentrations; KD estimated with the xy analysis subprogram of GraphPad Prism v. 5"}
{"substance": "MBP-OmpL1 (natural protein)", "values": [{"measurement": "Kd", "value": 870, "unit": "nM"}]}
